Measurements from PMC13649712, “Role of PER-WDR5 interactions in the mammalian circadian clock” (Nature Communications, 2026).
Blank lines part the entries; values can stand above or below the binder they belong to.

Target: preformed PER1 1013-1291/WDR5 22-334 complex (mouse, UniProt O35973 1013-1291; P61965 22-334)
Experiment: SEC; PER1 1013-1291, CRY1 1-496 or CRY2 1-512 and WDR5 22-334: equimolar mixture (60 min, 4 °C) or PER1/WDR5 complex pre-formed overnight and then equimolar CRY added for 60 min; dimeric complexes run for comparison; S200 10/300; 25 mM HEPES pH 7.5, 300 mM NaCl, 5% glycerol, 1 mM DTT
Details: both partners purified

binding result: binds
B1: mouse CRY1 1-496 (PHR) (domain or fragment)
chain: MGVNAVHWFRKGLRLHDNPALKECIQGADTIRCVYILDPWFAGSSNVGINRWRFLLQCLEDLDANLRKLNSRLFVIRGQPADVFPRLFKEWNITKLSIEYDSEPFGKERDAAIKKLATEAGVEVIVRISHTLYDLDKIIELNGGQPPLTYKRFQTLVSKMEPLEMPADTITSDVIGKCMTPLSDDHDEKYGVPSLEELGFDTDGLSSAVWPGGETEALTRLERHLERKAWVANFERPRMNANSLLASPTGLSPYLRFGCLSCRLFYFKLTDLYKKVKKNSSPPLSLYGQLLWREFFYTAATNNPRFDKMEGNPICVQIPWDKNPEALAKWAEGRTGFPWIDAIMTQLRQEGWIHHLARHAVACFLTRGDLWISWEEGMKVFEELLLDADWSINAGSWMWLSCSSFFQQFFHCYCPVGFGRRTDPNGDYIRRYLPVLRGFPAKYIYDPWNAPEGIQKVAKCLIGVNYPKPMVNHAEASRLNIERMKQIYQQLSRYRG
notes: pCoofy27; tag-free after cleavage; also called CRY1-PHR

binding result: binds
B2: mouse CRY2-PHR (1-512) (domain or fragment)
chain: MAAAAVVAATVPAQSMGADGASSVHWFRKGLRLHDNPALLAAVRGARCVRCVYILDPWFAASSSVGINRWRFLLQSLEDLDTSLRKLNSRLFVVRGQPADVFPRLFKEWGVTRLTFEYDSEPFGKERDAAIMKMAKEAGVEVVTENSHTLYDLDRIIELNGQKPPLTYKRFQALISRMELPKKPAVAVSSQQMESCRAEIQENHDDTYGVPSLEELGFPTEGLGPAVWQGGETEALARLDKHLERKAWVANYERPRMNANSLLASPTGLSPYLRFGCLSCRLFYYRLWDLYKKVKRNSTPPLSLFGQLLWREFFYTAATNNPRFDRMEGNPICIQIPWDRNPEALAKWAEGKTGFPWIDAIMTQLRQEGWIHHLARHAVACFLTRGDLWVSWESGVRVFDELLLDADFSVNAGSWMWLSCSAFFQQFFHCYCPVGFGRRTDPSGDYIRRYLPKLKGFPSRYIYEPWNAPESVQKAAKCIIGVDYPRPIVNHAETSRLNIERMKQIYQQLSRY
notes: Cryptochrome-2 (CRY2), mouse, photolyase homology region, residues 1-512; pCoofy27; tag-free after cleavage; also called CRY2 1-512
